Experimental data reported in patent US20090036380A1, “Composition And Method For Brain Tumor Therapy” (Yeda Research and Development Co., Ltd., priority 2006, published 2009).

How the values were obtained:
PC12 cells [1] = assay: Effect of pathway proteins and inhibitors on Karet-induced cell death in PC12 cells; format: cell-based, rat; settings: co-electroporated with Karet into PC12, 12 hours
PC12 cells [2] = assay: Viability / death of PC12 cells after transfection with Karet constructs (Live/dead kit, FACS, cell counting, Hoechst); format: cell-based, rat; settings: PC12-necdin stable cells electroporated with Karet
Procedure: FIG. 5a is a bar-graph of FACS data depicting 50 percent death of PC12 cells overexpressing Karet. Shown is a FACS analysis of PC12 viability 15 hours after transfection with Ha-Karet or control vector using Live/dead kit (Molecular probes), T-test=0.003.
FIG. 5b is a series of fluorescence photomicrographs depicting death of PC12 cells caused by Karet overexpression. Shown is a live/dead kit analysis of PC12 cells overexpressing Ha-Karet (left panels) versus control vector-transfected cells (right panels). Live cell are stained in green, dead cells are stained in red. Upper panels each show red fluorescence only (left picture) and green fluorescence only (right picture) pairs, and lower panels each show combined red and green fluorescence (left picture) and light microscopy images (right picture) pairs. […]
FIG. 5e is a histogram depicting that Karet expression induces cell death of TrkA expressing cells, which is increased by NGF treatment and is decreased by necdin. […] Cells were counted and result presented as percent of control.
PC12 cells were transfected with Ha Karet, PTB, non PTB and their combinations. Cells were analyzed by FACS 18 hours after transfection using the dead/live kit. […]
The lower panel is a histogram depicting that Karet-mediated cell death correlates well with expression levels of the Karet protein. […] Cells were counted and the results were determined as percent of control. […]

TrkA = assay: Co-immunoprecipitation of HA-Karet constructs with TrkA; format: binding; settings: co-transfected Hek or NNR5 cells, anti-HA IP
Procedure: FIG. 3c is a co-immunoprecipitation assay depicting co-immunoprecipitation of HA-Karet with TrkA in COS cells. Karet tagged with the HA epitope was immunoprecipitated with anti-HA antibody and the blot was incubated with anti-TrkA (RTA). In control experiments the HA-Karet was substituted with vector.
FIG. 3d is a co-immunoprecipitation assay depicting interaction of Karet and TrkA in NNR5 cells transfected with TrkA.
FIG. 3e is a co-immunoprecipitation assay depicting co-immunoprecipitation of HA-Karet with TricA in co-transfected NNR5 cells immunoprecipitated with anti-HA (Roche) and Western blot with the anti-TrkA antibody C14 (Santa Cruz).
FIGS. 4a-c are co-immunoprecipitation assay results depicting the influence of NGF treatment on TrkA-Karet interaction. FIG. 4a depicts that TrkA-Karet interaction occurred prior to NGF treatment and was enhanced after ligand stimulation for 10 minutes (10 m) or 2 hours (2 h). HA-Karet was electroporated into cell line PC12, and the cells were treated with 50 ng/ml NGF for the indicated time periods in order to activate p75 and TrkA. Karet tagged with the HA epitope was immunoprecipitated with anti-HA antibody, the precipitated proteins were separated electrophoretically, and gel blots were incubated with anti-TrkA antibody (RTA). […]

[3] = target: 27 amino acid residue juxtamembrane region of TrkA (Homo sapiens, UniProt P04629); assay: In-vitro affinity co-precipitation with biotinylated TrkA juxtamembrane peptide; format: binding; settings: streptavidin beads, recombinant protein, versus two control peptides
Sequence of 27 amino acid residue juxtamembrane region of TrkA (P04629 464-490 limits assumed): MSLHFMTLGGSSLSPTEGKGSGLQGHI
Source text: FIG. 8a is a co-immunoprecipitation analysis depicting interaction of Karet PTB domain with a juxtamembrane region of TrkA. Biotinylated synthetic peptide corresponding to the TrkA sequence in the juxtamembrane and control peptide were immobilized on streptavidin beads and then used to precipitate recombinant Karet protein. Precipitates were washed, eluted and bound Karet was visualized by Western blot with anti-His antibody.
FIG. 8b is an in-vitro affinity co-precipitation Western blot depicting that the isolated N-terminal PTB domain of Karet specifically interacts with a […] residue juxtamembrane region of TrkA having the sequence Biotinylated synthetic peptides corresponding to a 27 amino acid residue juxtamembrane region of TrkA having the sequence […] (SEQ ID NO: 10), and two control peptides were immobilized on streptavidin beads, and then used to precipitate recombinant PTB domain-containing Karet(1-228) truncation mutant. Precipitates were washed, eluted and bound Karet(1-228) was visualized by Western blot with Karet antibody.

B1: JIP1: a Jnk scaffold and inhibitor (protein, UniProt Q9UQF2 1-711, looked up)
C-Jun-amino-terminal …: MAERESGGLGGGAASPPAASPFLGLHIASPPNFRLTHDISLEEFEDEDLSEITDECGISLQCKDTLSLRPPRAGLLSAGGGGAGSRLQAEMLQMDLIDATGDTPGAEDDEEDDDEERAARRPGAGPPKAESGQEPASRGQGQSQGQSQGPGSGDTYRPKRPTTLNLFPQVPRSQDTLNNNSLGKKHSWQDRVSRSSSPLKTGEQTPPHEHICLSDELPPQSGPAPTTDRGTSTDSPCRRSTATQMAPPGGPPAAPPGGRGHSHRDRIHYQADVRLEATEEIYLTPVQRPPDAAEPTSAFLPPTESRMSVSSDPDPAAYPSTAGRPHPSISEEEEGFDCLSSPERAEPPGGGWRGSLGEPPPPPRASLSSDTSALSYDSVKYTLVVDEHAQLELVSLRPCFGDYSDESDSATVYDNCASVSSPYESAIGEEYEEAPRPQPPACLSEDSTPDEPDVHFSKKFLNVFMSGRSRSSSAESFGLFSCIINGEEQEQTHRAIFRFVPRHEDELELEVDDPLLVELQAEDYWYEAYNMRTGARGVFPAYYAIEVTKEPEHMAALAKNSDWVDQFRVKFLGSVQVPYHKGNDVLCAAMQKIATTRRLTVHFNPPSSCVLEISVRGVKIGVKADDSQEAKGNKCSHFFQLKNISFCGYHPKNNKYFGFITKHPADHRFACHVFVSEDSTKALAESVGRAFQQFYKQFVEYTCPTEDIYLE
effect on cell death induction by Karet (PC12 cells [1]): did not affect cell death induction

B2: necdin: MAGE protein, interactor of the intracellular domain of p75 (protein)
chain: MSEQSKDLSDPNFAAEVPDCEMQDSDAVPVGIPPPASLAANLAGPPCAPEGPMAAQQASPPPEERIEDVDPKILQQAAEEGRAHQPQSPARPIPAPPAPAQLVQKAHELMWYVLVKDQKRMVLWFPDMVKEVMGSYKKWCRSILRRTSVILARVFGLHLRLTNLHTMEFALVKALSPEELDRVALNNRMPMTGLLLMILSLIYVKGRGAREGAVWNVLRILGLRPWKKHSTFGDVRKIITEEFVQQNYLKYQRVPHIEPPEYEFFWGSRANREITKMQIMEFLARVFKKDPQAWPSRYREALEQARALREANLAAQAPRSSVSED
effect on the apoptotic effects of Karet (PC12 cells [2]): attenuated somewhat the apoptotic effects of Karet

B3: Karet(1-228): N-terminal, PTB-domain-containing truncation mutant of mouse Karet, amino acid residues 1-228 (SEQ ID NO: 7) (protein, listed as Mus musculus)
chain: MEEEGKKGKKPGIVSPFKRVFLKGEKSRDKKAHEKVTERRPLHTVVLALPERVEPDRLLSDYIEKEVKYLGQLTSIPGYLNPSSRTEILHFIDKAKRSHQLPGHLTQEHDAVLSLSAYNVKLAWRDGEDIILRVPIHDIAAVSYVRDDAAHLVVLKTAQDPGISPSQSLCAESSRGLSAGSLSESAVGPVEACCLVIMATESKVAAEELCSLLSQVFQIVYTESTIDF
modifications: HA tag; N-terminal PTB-domain-containing, truncation mutant of the mouse Karet
co-immunoprecipitation / interaction with TrkA (TrkA): interacts with TrkA | co-immunoprecipitation / interaction with TrkA (TrkA; listed as PTB domain alone): co-immunoprecipitated | precipitation by immobilized TrkA peptide (SEQ ID NO: 10) [3]: precipitated by the TrkA peptide

B4: p35: a baculovirus caspase-8 and caspase-10 inhibitor (protein, UniProt P08160 1-299, looked up)
Early 35 kDa protein: MCVIFPVEIDVSQTIIRDCQVDKQTRELVYINKIMNTQLTKPVLMMFNISGPIRSVTRKNNNLRDRIKSKVDEQFDQLERDYSDQMDGFHDSIKYFKDEHYSVSCQNGSVLKSKFAKILKSHDYTDKKSIEAYEKYCLPKLVDERNDYYVAVCVLKPGFENGSNQVLSFEYNPIGNKVIVPFAHEINDTGLYEYDVVAYVDSVQFDGEQFEEFVQSLILPSSFKNSEKVLYYNEASKNKSMIYKALEFTTESSWGKSEKYNWKIFCNGFIYDKKSKVLYVKLHNVTSALNKNVILNTIK
effect on cell death induction by Karet (PC12 cells [1]): did not affect cell death induction
